# Assay results as given in the supplement of paper PMC11316812.
# ± gives the standard deviation of the averaged measurements.
# Legend:
# hTERT-HMEC = assay: percentage of EdU-negative (G0-arrested) nuclei per well, 72 h; higher = more G0 arrest; conditions: reference: sequence is the full UniProt precursor, the tested protein was the secreted form or ectodomain
# MCF7 = assay: as above; conditions: reference: sequence is the full UniProt precursor, the tested protein was the secreted form or ectodomain
# [1] = protein concentration 0.0225 µM
# [2] = protein concentration 0.00669 µM
# [3] = protein concentration 0.0669 µM
# [4] = protein concentration 0.0305714 µM
# [5] = protein concentration 0.305714 µM
# [6] = protein concentration 0.0261 µM
# [7] = protein concentration 0.0257143 µM
# [8] = protein concentration 0.257143 µM
# 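Also: secreted proteins added to cultured cells, EdU pulse at the end, nuclei found by Hoechst imaging, EdU status from nuclear versus surrounding ring intensity ratio, PBS as neutral control.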
# Chain of Q6ZMJ2 (chain, as listed by the source): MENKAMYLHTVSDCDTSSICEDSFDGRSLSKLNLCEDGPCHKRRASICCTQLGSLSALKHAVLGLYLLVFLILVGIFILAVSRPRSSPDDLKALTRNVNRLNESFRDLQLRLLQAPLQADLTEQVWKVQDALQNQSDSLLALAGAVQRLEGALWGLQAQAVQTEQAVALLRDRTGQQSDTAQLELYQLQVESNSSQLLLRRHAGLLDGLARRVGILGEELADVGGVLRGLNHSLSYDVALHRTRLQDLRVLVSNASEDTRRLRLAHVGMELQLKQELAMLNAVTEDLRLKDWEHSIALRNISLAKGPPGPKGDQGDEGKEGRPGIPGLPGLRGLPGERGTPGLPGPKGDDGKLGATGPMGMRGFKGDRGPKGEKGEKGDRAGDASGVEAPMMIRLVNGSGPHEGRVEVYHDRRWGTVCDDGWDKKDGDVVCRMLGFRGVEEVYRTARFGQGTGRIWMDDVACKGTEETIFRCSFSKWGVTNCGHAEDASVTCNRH
substance,measurement,setting,value
MKPAAREARLPPRSPGLRWALPLLLLLLRLGQILCAGGTPSPIPDPSVATVATGENGITQISSTAESFHKQNGTGTPQVETNTSEDGESSGANDSLRTPEQGSNGTDGASQKTPSSTGPSPVFDIKAVSISPTNVILTWKSNDTAASEYKYVVKHKMENEKTITVVHQPWCNITGLRPATSYVFSITPGIGNETWGDPRVIKVITEPIPVSDLRVALTGVRKAALSWSNGNGTASCRVLLESIGSHEELTQDSRLQVNISGLKPGVQYNINPYLLQSNKTKGDPLGTEGGLDASNTERSRAGSPTAPVHDESLVGPVDPSSGQQSRDTEVLLVGLEPGTRYNATVYSQAANGTEGQPQAIEFRTNAIQVFDVTAVNISATSLTLIWKVSDNESSSNYTYKIHVAGETDSSNLNVSEPRAVIPGLRSSTFYNITVCPVLGDIEGTPGFLQVHTPPVPVSDFRVTVVSTTEIGLAWSSHDAESFQMHITQEGAGNSRVEITTNQSIIIGGLFPGTKYCFEIVPKGPNGTEGASRTVCNRTVPSAVFDIHVVYVTTTEMWLDWKSPDGASEYVYHLVIESKHGSNHTSTYDKAITLQGLIPGTLYNITISPEVDHVWGDPNSTAQYTRPSNVSNIDVSTNTTAATLSWQNFDDASPTYSYCLLIEKAGNSSNATQVVTDIGITDATVTELIPGSSYTVEIFAQVGDGIKSLEPGRKSFCTDPASMASFDCEVVPKEPALVLKWTCPPGANAGFELEVSSGAWNNATHLESCSSENGTEYRTEVTYLNFSTSYNISITTVSCGKMAAPTRNTCTTGITDPPPPDGSPNITSVSHNSVKVKFSGFEASHGPIKAYAVILTTGEAGHPSADVLKYTYEDFKKGASDTYVTYLIRTEEKGRSQSLSEVLKYEIDVGNESTTLGYYNGKLEPLGSYRACVAGFTNITFHPQNKGLIDGAESYVSFSRYSDAVSLPQDPGVICGAVFGCIFGALVIVTVGGFIFWRKKRKDAKNNEVSFSQIKPKKSKLIRVENFEAYFKKQQADSNCGFAEEYEDLKLVGISQPKYAAELAENRGKNRYNNVLPYDISRVKLSVQTHSTDDYINANYMPGYHSKKDFIATQGPLPNTLKDFWRMVWEKNVYAIIMLTKCVEQGRTKCEEYWPSKQAQDYGDITVAMTSEIVLPEWTIRDFTVKNIQTSESHPLRQFHFTSWPDHGVPDTTDLLINFRYLVRDYMKQSPPESPILVHCSAGVGRTGTFIAIDRLIYQIENENTVDVYGIVYDLRMHRPLMVQTEDQYVFLNQCVLDIVRSQKDSKVDLIYQNTTAMTIYENLAPVTTFGKTNGYIA,percentage of EdU-negative,hTERT-HMEC; [1],5.56 ± 1.9%
same,percentage of EdU-negative,hTERT-HMEC; protein concentration 0.225 µM,5.79 ± 0.53%
same,percentage of EdU-negative,MCF7; [1],23.2 ± 1.6%
same,percentage of EdU-negative,MCF7; protein concentration 0.225 µM,22.4 ± 0.63%
MAQHGAMGAFRALCGLALLCALSLGQRPTGGPGCGPGRLLLGTGTDARCCRVHTTRCCRDYPGEECCSEWDCMCVQPEFHCGDPCCTTCRHHPCPPGQGVQSQGKFSFGFQCIDCASGTFSGGHEGHCKPWTDCTQFGFLTVFPGNKTHNAVCVPGSPPAEPLGWLTVVLLAVAACVLLLTSAQLGLHIWQLRSQCMWPRETQLLLEVPPSTEDARSCQFPEEERGERSAEEKGRLGDLWV [Q9Y5U5],percentage of EdU-negative,hTERT-HMEC; [2],5.37 ± 0.9%
same,percentage of EdU-negative,hTERT-HMEC; [3],6.01 ± 1.5%
same,percentage of EdU-negative,MCF7; [2],24.9 ± 1.6%
same,percentage of EdU-negative,MCF7; [3],23.9 ± 0.75%
MAAEPLTELEESIETVVTTFFTFARQEGRKDSLSVNEFKELVTQQLPHLLKDVGSLDEKMKSLDVNQDSELKFNEYWRLIGELAKEIRKKKDLKIRKK,percentage of EdU-negative,hTERT-HMEC; [1],4.78 ± 0.24%
same,percentage of EdU-negative,hTERT-HMEC; protein concentration 0.225 µM,5.02 ± 0.53%
same,percentage of EdU-negative,MCF7; [1],27.3 ± 1.9%
same,percentage of EdU-negative,MCF7; protein concentration 0.225 µM,25.4 ± 0.45%
MKHSLNALLIFLIITSAWGGSKGPLDQLEKGGETAQSADPQWEQLNNKNLSMPLLPADFHKENTVTNDWIPEGEEDDDYLDLEKIFSEDDDYIDIVDSLSVSPTDSDVSAGNILQLFHGKSRIQRLNILNAKFAFNLYRVLKDQVNTFDNIFIAPVGISTAMGMISLGLKGETHEQVHSILHFKDFVNASSKYEITTIHNLFRKLTHRLFRRNFGYTLRSVNDLYIQKQFPILLDFKTKVREYYFAEAQIADFSDPAFISKTNNHIMKLTKGLIKDALENIDPATQMMILNCIYFKGSWVNKFPVEMTHNHNFRLNEREVVKVSMMQTKGNFLAANDQELDCDILQLEYVGGISMLIVVPHKMSGMKTLEAQLTPRVVERWQKSMTNRTREVLLPKFKLEKNYNLVESLKLMGIRMLFDKNGNMAGISDQRIAIDLFKHQGTITVNEEGTQATTVTTVGFMPLSTQVRFTVDRPFLFLIYEHRTSCLLFMGRVANPSRS,percentage of EdU-negative,hTERT-HMEC; [4],6.41 ± 0.77%
same,percentage of EdU-negative,hTERT-HMEC; [5],22.5 ± 9.3%
same,percentage of EdU-negative,MCF7; [4],27.6 ± 0.28%
same,percentage of EdU-negative,MCF7; [5],30 ± 1.5%
MRAPLLPPAPVVLSLLILGSGHYAAGLDLNDTYSGKREPFSGDHSADGFEVTSRSEMSSGSEISPVSEMPSSSEPSSGADYDYSEEYDNEPQIPGYIVDDSVRVEQVVKPPQNKTESENTSDKPKRKKKGGKNGKNRRNRKKKNPCNAEFQNFCIHGECKYIEHLEAVTCKCQQEYFGERCGEKSMKTHSMIDSSLSKIALAAIAAFMSAVILTAVAVITVQLRRQYVRKYEGEAEERKKLRQENGNVHAIA,percentage of EdU-negative,hTERT-HMEC; [6],5.2 ± 0.8%
same,percentage of EdU-negative,hTERT-HMEC; protein concentration 0.261 µM,5.0893 ± 0.0048%
same,percentage of EdU-negative,MCF7; [6],26.1 ± 0.68%
same,percentage of EdU-negative,MCF7; protein concentration 0.261 µM,25.9 ± 1.5%
Q6ZMJ2,percentage of EdU-negative,hTERT-HMEC; [7],4.96 ± 0.49%
same,percentage of EdU-negative,hTERT-HMEC; [8],8.139 ± 0.079%
same,percentage of EdU-negative,MCF7; [7],24.7 ± 1.6%
same,percentage of EdU-negative,MCF7; [8],24.2 ± 0.89%
